Measured values from article PMC4560099.
Values belong to the substance of their own block, whether it stands above or below them.

Target: 14-3-3ε (UniProt P62259)
Experiment: GST-14-3-3ε pull-down from neuronal lysate
Settings: reference: wild-type CRTC1270

- binding against the reference (sites S64): weaker
Substance: CRTC1 (CRTC1270 reporter) 1-270 (from UniProt Q68ED7) S64A

- binding against the reference (sites S151): weaker
Substance: CRTC1 (CRTC1270 reporter) 1-270 (from UniProt Q68ED7) S151A

Substance: CRTC1 (CRTC1270 reporter) 1-270 (from UniProt Q68ED7) S64A/S151A/S245A
- binding against the reference (sites S64,S151,S245): lost

Substance: CRTC1 (CRTC1270 reporter) 1-270 (from UniProt Q68ED7) S245A
- binding against the reference (sites S245): weaker
